Data on three substances can be found in patent US20240228586A1.

Chain of IL-12 receptor complex (IL-12Rb1 and IL-12Rb2) on preactivated primary mouse CD8+ T cells (mouse) (Q60837 20-738, chain 1 of 2): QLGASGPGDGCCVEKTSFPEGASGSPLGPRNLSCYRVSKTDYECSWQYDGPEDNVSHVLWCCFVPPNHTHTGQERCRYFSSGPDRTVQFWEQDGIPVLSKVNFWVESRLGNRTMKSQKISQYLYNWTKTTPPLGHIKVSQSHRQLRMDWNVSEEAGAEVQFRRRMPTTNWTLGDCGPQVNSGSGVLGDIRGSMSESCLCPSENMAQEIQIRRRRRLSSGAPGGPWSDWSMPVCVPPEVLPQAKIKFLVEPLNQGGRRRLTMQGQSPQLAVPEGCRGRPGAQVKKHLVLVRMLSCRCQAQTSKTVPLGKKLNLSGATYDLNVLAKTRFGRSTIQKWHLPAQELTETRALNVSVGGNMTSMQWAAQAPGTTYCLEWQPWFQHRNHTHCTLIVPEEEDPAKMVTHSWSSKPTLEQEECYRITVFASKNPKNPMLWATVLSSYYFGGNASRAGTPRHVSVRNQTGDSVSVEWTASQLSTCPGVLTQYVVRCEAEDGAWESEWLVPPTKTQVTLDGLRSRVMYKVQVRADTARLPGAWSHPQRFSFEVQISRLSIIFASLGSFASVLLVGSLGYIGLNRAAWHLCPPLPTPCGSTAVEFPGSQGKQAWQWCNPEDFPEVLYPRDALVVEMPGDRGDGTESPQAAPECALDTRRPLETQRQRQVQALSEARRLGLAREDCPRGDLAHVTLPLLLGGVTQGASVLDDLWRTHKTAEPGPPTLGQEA
Chain of IL-12 receptor complex (IL-12Rb1 and IL-12Rb2) on preactivated primary mouse CD8+ T cells (mouse) (chain, as listed by the source, chain 2 of 2): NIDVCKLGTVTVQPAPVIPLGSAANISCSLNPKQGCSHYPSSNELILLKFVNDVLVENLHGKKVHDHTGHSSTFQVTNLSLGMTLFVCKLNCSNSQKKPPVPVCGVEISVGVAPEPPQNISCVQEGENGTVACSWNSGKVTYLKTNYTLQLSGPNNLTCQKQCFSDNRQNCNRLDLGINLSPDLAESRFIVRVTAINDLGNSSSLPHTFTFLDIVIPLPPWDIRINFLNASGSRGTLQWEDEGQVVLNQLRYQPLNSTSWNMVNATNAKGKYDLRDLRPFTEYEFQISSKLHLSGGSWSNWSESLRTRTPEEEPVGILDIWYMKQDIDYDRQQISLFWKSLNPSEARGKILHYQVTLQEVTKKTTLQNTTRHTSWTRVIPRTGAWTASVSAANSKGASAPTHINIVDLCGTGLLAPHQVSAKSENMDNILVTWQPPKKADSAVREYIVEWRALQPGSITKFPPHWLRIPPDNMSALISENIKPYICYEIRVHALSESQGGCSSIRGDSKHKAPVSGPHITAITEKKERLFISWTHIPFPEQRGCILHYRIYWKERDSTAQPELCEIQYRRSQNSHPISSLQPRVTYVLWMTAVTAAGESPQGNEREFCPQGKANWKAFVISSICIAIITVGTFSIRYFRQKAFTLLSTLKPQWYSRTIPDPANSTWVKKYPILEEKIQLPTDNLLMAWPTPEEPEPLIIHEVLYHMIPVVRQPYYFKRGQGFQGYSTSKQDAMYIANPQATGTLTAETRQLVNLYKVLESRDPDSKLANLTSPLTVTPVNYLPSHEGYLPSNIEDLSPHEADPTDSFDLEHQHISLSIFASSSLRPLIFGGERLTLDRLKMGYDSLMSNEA

This experiment concerns the target IL-12 receptor complex (IL-12Rb1 and IL-12Rb2) on preactivated primary mouse CD8+ T cells (mouse) (UniProt Q60837). Kind of experiment: cell-based or functional assay.
“M-L1-IL12-MSA (from UniProt P43432 23-335)”: the STAT4 phosphorylation in preactivated primary mouse CD8+ T cells, EC50 compared with unmodified IL-12 (fold decrease) turned out to be 100.

As to “M-L1-IL12 (mouse IL-12Rb1 mask fused through the (G3S)11 linker to the N-terminus of mouse p35, with mouse p40) (from UniProt P43432 23-335)”, the STAT4 phosphorylation in preactivated primary mouse CD8+ T cells, EC50 compared with unmodified IL-12 (fold decrease) was found to be 100.

“M-L1-IL12-CBD (from UniProt P04275 1670-1874)”: the STAT4 phosphorylation in preactivated primary mouse CD8+ T cells, EC50 compared with unmodified IL-12 (fold decrease) is 100.
